Experimental data reported in patent US20060275822.

Biological target: W-SCAT protein (Venus - caspase 3 substrate site - Venus, expressed from pRSETB/W-SCAT in Escherichia coli)

B1: active caspase 3 (CPP32, MBL) (protein)
chain: SGISLDNSYKMDYPEMGLCIIINNKNFHKSTGMTSRSGTDVDAANLRETFRNLKYEVRNKNDLTREEIVELMRDVSKEDHSKRSSFVCVLLSHGEEGIIFGTNGPVDLKKITNFFRGDRCRSLTGKPKLFIIQACRGTELDCGIETDSGVDDDMACHKIPVEADFLYAYSTAPGYYSWRNSKDGSWFIQSLCAMLKQYADKLEFMHILTRVNRKVATEFESFSFDATFHAKKQIPCIVSMLTKELYFYH
Fluorescent anisotropy (mA) of W-SCAT after 2 hours at 37 C with 1 unit of active caspase 3, measured with Beacon (control without casp3: 225.8): 276 mA
